Source: patent US9889184B2 (priority 2008, dated 2018)
No end group written: not given here.

Legend:
Fusarium graminearum = format: cell-based; details: for fungicidal activity in combination with NaD1: F. graminearum, conditions of the fungal bioassay; for fungicidal activity of the proteinase inhibitor on its own: not combined with NaD1, F. graminearum; for effect on hyphal growth: concentrations up to 18.5 uM in the absence of NaD1
[1] = tested on: Fusarium oxysporum species; details: cited from earlier work
[2] = tested on: Fusarium oxysporum f. sp. vasinfectum (Fov); assay: Growth inhibition of Fov by NaD1 (microtitre OD595); format: cell-based
Experimental: Lyophilized NaD1 (500 μg) was dissolved in 400 μL of stock buffer (200 mM Tris-HCl pH 8.0, 2 mM EDTA, 6 M guanidine-HCl, 0.02% [v/v] Tween-20). Reduction buffer (stock buffer with 15 mM dithiothreitol [DTT]) was added (44 μL) followed by a 4.5 h incubation at 40° C. The reaction mixture was cooled to RT before iodoacetic acid (0.5 M in 1 M NaOH, 55 μL) was added and the incubation continued in the dark for 30 min at RT. A Nanosep omega (Registered) spin column (3K molecular weight cut off, PALL Life Sciences) was used to remove salts, DTT and iodoacetic acid and the protein concentration was determined using the BCA protein assay (Pierce). The effect of reduced and alkylated NaD1 (NaD1R&A) on the growth of Fusarium oxysporum (Fov) was measured as described herein.
Antifungal activity against Fusarium oxysporum f. sp. vasinfectum (Fov, Australian isolate VCG01111 isolated from cotton; from Wayne O'Neill, Farming Systems Institute, DPI, Queensland, Australia), Thielaviopsis basicola (gift from David Nehl, NSW DPI, Narrabri, Australia), Verticillium dahliae (from Helen McFadden, CSIRO Plant Industry, Black Mountain, Australia), Leptosphaeria maculans (from Barbara Howlett, University of Melbourne, Victoria, Australia) and Aspergillus nidulans (from Michael Hynes, University of Melbourne) was assessed essentially as described in Broekaert et al, 1990. Spores were isolated from sporulating cultures growing in either half-strength potato dextrose broth (PDB) (Fov and T. basicola), Czapeck-Dox Broth (V. dahliae) (Difco Laboratories) or 10% (v/v) clarified V8 medium (L. maculans and A. nidulans) by filtration through sterile muslin. Spore concentrations were determined using a hemocytometer and adjusted to 5×10^4 spores/mL in the appropriate growth medium. Spore suspensions (80 μL) were added to the wells of sterile 96-well flat-bottomed microtitre plates along with 20 μL of filter-sterilized (0.22 μm syringe filter; Millipore) NaD1, or water to give final protein concentrations of 0-10 μM. The plates were shaken briefly and placed in the dark at 25° C. without shaking until the optical density at 595 nm of the water control reached approximately 0.2 (24-72 h depending on growth rate). Hyphal growth was estimated by measuring the optical density at 595 nm using a microtitre plate reader (SpectraMax Pro M2; Molecular Devices). Each test was performed in quadruplicate.

Fov hyphae = assay: Uptake of NaD1 into hyphae (immunogold EM, bimane fluorescence, immunoblot); format: cell-based, Fusarium oxysporum f. sp. vasinfectum; details: fluorescence microscopy, live hyphae
Experimental: Fov hyphae were grown as described above prior to the addition of NaD1 (10 μM final concentration) to 1 mL of the culture. Samples (100 μL) were collected after 0, 5, 10, 30, 60, 90 and 120 min. Hyphae were collected by centrifugation (10 min, 10,000×g) and the supernatant was stored at −20° C. for analysis. Hyphae were washed (2×10 min) with KCl (0.6 M) to remove any ionically bound protein before they were resuspended in 50 mM CAPS buffer (pH 10.0) containing 10 mM DTT for 20 min. Hyphae were collected by centrifugation and the supernatant, containing cell wall proteins, was collected for analysis. The pellet (containing cells) was resuspended in water and the cells were lysed using glass beads (Sigma, 60 mg) and vortexing (3×10 min). Cellular debris was removed by centrifugation (16,000×g, 10 min) and the supernatant collected for analysis. All samples were then analyzed by SDS-PAGE and immunoblotting.
Fov hyphae were grown for 18 h in half-strength PDB (5 mL) with vigorous shaking at 25° C. from a starting spore suspension of 5×10^4/mL. Hyphae were then treated with 2 μM NaD1 or an equivalent volume of water for 2 h at RT with gentle agitation, and were washed twice in 0.6 M KCl and three times in PBS before fixation in 4% (w/v) paraformaldehyde in PBS for 1 h at 4° C. Hyphae were again washed three times in PBS before dehydration in a standard ethanol series (15 min each, 50%, 70% and 90% ethanol, 3×15 min 100% ethanol). Hyphae were then infiltrated with LR White resin (ProSciTech) for 1 h at RT, followed by 18 h at 4° C., 1 h at RT and 24 h at 60° C. Fresh LR White resin was used at each step. Ultrathin sections were cut and placed on Formvar coated gold grids.
Grids were blocked with PBS containing 8% (w/v) BSA and 1% (v/v) Triton X-100 for 1 h and labeled with α-NaD1 antibodies (2 μg/mL in blocking buffer) for 1 h. Grids were washed in blocking buffer (3×10 min) and labeled with 15 nm gold particle labeled goat α-rabbit IgG antibodies (ProSciTech diluted 1 in 20 for 1 h. Grids were washed again in blocking solution (3×10 min) followed by water (15 min) before being air-dried. A JEOL JEM2010HC x e80 KV transmission electron microscope was used to examine labeled grids. Pictures were taken on Kodak EM film (ProSciTech) and developed in a dark room before scanning on a Hewlett Packard Scanjet 5P scanner.
Hyphae grown for 18 h as described were treated with NaD1-bimane (2 μM) for between 10 min and 6 h. Hyphae were then visualized by fluorescence microscopy using an MWU filter (excitation wavelength of 330-385 nm).

papain = biological target: T1, papain (Carica papaya, UniProt P00784); assay: Cysteine proteinase inhibitory activity, ZFR-MCA substrate; format: biochemical; details: bacterially expressed cystatin, FIG. 1D
T1 construct: purchased Sigma
T1 sequence (P00784 134-345): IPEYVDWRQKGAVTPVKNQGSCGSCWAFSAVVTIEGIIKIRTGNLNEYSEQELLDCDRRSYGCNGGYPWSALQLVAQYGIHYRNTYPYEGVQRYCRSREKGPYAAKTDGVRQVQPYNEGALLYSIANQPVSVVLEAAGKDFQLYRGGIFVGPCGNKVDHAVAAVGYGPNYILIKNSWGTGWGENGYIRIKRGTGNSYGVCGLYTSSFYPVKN
Experimental: (§1) The cysteine proteinase inhibitory activity of bacterially expressed NaCys1, NaCys3 and NaCys4 was determined using the enzymes papain and cathepsin L (Sigma). The assay mixtures (final volume 250 uL) contained papain or cathepsin L (50 nM final concentration), 100 uL of ZFR-MCA substrate (0.2 mM, Bachem, Melo et al., 2001), 100 uL of reaction buffer (0.2 M sodium acetate, 4 mM EDTA, 8 mM DTT, pH 5.5) and 50 uL of cystatin (for 0-20 uM final concentration). Released fluorescence was measured at 460 nm (excitation at 340 nm) after a 10 or 50 min incubation for papain and cathepsin L, respectively, at 37° C.

cathepsin L = biological target: T2, cathepsin L (Homo sapiens, UniProt P07711); assay: as above; format: biochemical; details: bacterially expressed cystatin, FIG. 1E
T2 construct: purchased Sigma
T2 sequence (P07711 114-333, species assumed): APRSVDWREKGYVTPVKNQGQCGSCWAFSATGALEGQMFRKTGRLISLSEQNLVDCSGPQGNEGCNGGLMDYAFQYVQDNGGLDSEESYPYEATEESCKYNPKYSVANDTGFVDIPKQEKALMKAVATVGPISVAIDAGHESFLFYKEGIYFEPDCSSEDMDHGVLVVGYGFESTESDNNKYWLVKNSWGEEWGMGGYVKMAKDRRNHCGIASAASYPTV
Experimental: as §1

Molecule: CC(C)C[C@H](NC(=O)[C@H]1O[C@@H]1C(=O)O)C(=O)NCCCCN=C(N)N [E64, reference compound]
- fungicidal activity in combination with NaD1 (Fusarium graminearum): no fungicidal activity
- fungicidal activity of the proteinase inhibitor on its own (Fusarium graminearum): no fungicidal activity

Molecule: Tomdef2: defensin isolated from tomato flowers (SEQ ID NO:22) (QQICKAPSQTFPGLCFMDSSCRKYCIKEKFTGGHCSKLQRKCLCTKPC; Solanum lycopersicum var. cerasiforme (Tomdef2))
- activity in inhibiting Fusarium oxysporum species [1]: active in inhibiting

Molecule: NaD1-bimane: NaD1 labeled with the fluorophore bimane amine at carboxyl residues (RECKTESNTFPGICITKPPCRKACISEKFTDGHCSKILRRCLCTKPC; ends and bridges not checked; also: bimane amine fluorophore label at carboxyl residues (position not given here); UniProt Q8GTM0 26-72, looked up)
- antifungal activity of fluorophore-labeled NaD1 [2]: retained full antifungal activity
- time at which internalization was observed (Fov hyphae): 20 to 30 min

Molecule: NaD1 labeled with FITC: NaD1 labeled with FITC via reactive amine groups (RECKTESNTFPGICITKPPCRKACISEKFTDGHCSKILRRCLCTKPC; ends and bridges not checked; also: FITC label via reactive amine groups (position not given here); UniProt Q8GTM0 26-72, looked up)
- antifungal activity of fluorophore-labeled NaD1 [2]: not biologically active

Molecule: PhD1A: defensin isolated from petunia (Petunia hybrida) flowers (SEQ ID NO:24) (ATCKAECPTWDGICINKGPCVKCCKAQPEKFTDGHCSKILRRCLCTKPC; Petunia hybrida (PhD1A))
- activity in inhibiting Fusarium oxysporum species [1]: active in inhibiting

B1: chicken egg white cystatin: cysteine proteinase inhibitor (12.7 kDa), Sigma C8917 (protein, UniProt P01038 24-139, looked up)
Cystatin: SEDRSRLLGAPVPVDENDEGLQRALQFAMAEYNRASNDKYSSRVVRVISAKRQLVSGIKYILQVEIGRTTCPKSSGDLQSCEFHDEPEMAKYTTCTFVVYSIPWLNQIKLLESKCQ
- fungicidal activity in combination with NaD1 (Fusarium graminearum): no fungicidal activity
- fungicidal activity of the proteinase inhibitor on its own (Fusarium graminearum): no fungicidal activity

B2: PhD2: plant defensin from Petunia hybrida, accession Q8H6Q0 (protein)
chain: MARSICFFAVAILALMLFAAYETEAGTCKAECPTWEGICINKAPCVKCCKAQPEKFTDGHCSKILRRCLCTKPCATEEATATLANEVKTMAEALVEEDMME
modifications: Petunia hybrida (PhD2Full length)
- activity in inhibiting Fusarium oxysporum species [1]: active in inhibiting

B3: Soybean trypsin inhibitor Type II-S: serine proteinase inhibitor (21 kDa), Sigma T9128 (protein, UniProt P01070 25-205, looked up)
Trypsin inhibitor A: DFVLDNEGNPLENGGTYYILSDITAFGGIRAAPTGNERCPLTVVQSRNELDKGIGTIISSPYRIRFIAEGHPLSLKFDSFAVIMLCVGIPTEWSVVEDLPEGPAVKIGENKDAMDGWFRLERVSDDEFNNYKLVFCPQQAEDDKCGDIGISIDHDDGTRRLVVSKNKPLVVQFQKLDKESL
- fungicidal activity in combination with NaD1 (Fusarium graminearum): no fungicidal activity
- fungicidal activity of the proteinase inhibitor on its own (Fusarium graminearum): no fungicidal activity

B4: NaCys1: cystatin from Nicotiana alata, bacterially expressed (SEQ ID NO:2) (protein)
chain: MATLGGIREAGGSENSLEINDLARFAVDEHNKKQNALLEFGKVVNVKEQVVAGTMYYITLEATEGGKKKAYEAKVWVKPWQNFKQLEDFKLIGDAASA
modifications: Nicotiana alata (NaCys1)
- inhibition of the cysteine proteinase papain (papain): strong inhibitors
- inhibition of Cathepsin L (cathepsin L): better inhibitors of Cathepsin L than NaCys4
- effect on hyphal growth (Fusarium graminearum): no effect on hyphal growth

B5: NaCys3: cystatin from Nicotiana alata, bacterially expressed (SEQ ID NO:6) (protein)
chain: MANLGGIREAGGSENSLEINDLARFAVDEHNKKQNALLEFGKVVNVKEQVVAGTMYYITLEATEGGKKKAYEAKVWVKPWQNFKQLEDFKLIGDAASA
modifications: Nicotiana alata (NaCys3)
- inhibition of the cysteine proteinase papain (papain): strong inhibitors
- inhibition of Cathepsin L (cathepsin L): better inhibitors of Cathepsin L than NaCys4
- effect on hyphal growth (Fusarium graminearum): no effect on hyphal growth

B6: NaCys4: cystatin from Nicotiana alata (SEQ ID NO:8), tryptophan to arginine substitution at position 80 (protein)
chain: MANLGGIREAGGSENSLEINDLARFAVDEHNKKQNALLEFGKVVNVKEQVVAGTMYYITLEATEGGKKKAYEAKVWVKPRQNFKQLEDFKLIGDAASA
modifications: Nicotiana alata (NaCys4)
- inhibition of the cysteine proteinase papain (papain): relatively poor inhibitor
